Bridge positions count the residues as written; N and C are the ends. Square brackets hold non-standard residues; d marks the D form. Ends that are not written are not given here. NMeF = CN[C@@H](Cc1ccccc1)C(=O)O; Orn = NCCC[C@H](N)C(=O)O; Dab = NCC[C@H](N)C(=O)O; Dap = NC[C@H](N)C(=O)O
B1: KLT-Orn-LASY-Glu-WLF-COOH (peptide)
peptide: KLT[Orn]LASYEWLF-OH
modifications: N-terminus assumed
SMILES: CC(C)C[C@H](NC(=O)[C@H](CCCN)NC(=O)[C@@H](NC(=O)[C@H](CC(C)C)NC(=O)[C@@H](N)CCCCN)[C@@H](C)O)C(=O)N[C@@H](C)C(=O)N[C@@H](CO)C(=O)N[C@@H](Cc1ccc(O)cc1)C(=O)N[C@@H](CCC(=O)O)C(=O)N[C@@H](Cc1c[nH]c2ccccc12)C(=O)N[C@@H](CC(C)C)C(=O)N[C@@H](Cc1ccccc1)C(=O)O
B2: KLT-Orn-LASY-Glu-WLF-CONH2 (peptide)
peptide: KLT[Orn]LASYEWLF-NH2
modifications: N-terminus assumed
SMILES: CC(C)C[C@H](NC(=O)[C@H](CCCN)NC(=O)[C@@H](NC(=O)[C@H](CC(C)C)NC(=O)[C@@H](N)CCCCN)[C@@H](C)O)C(=O)N[C@@H](C)C(=O)N[C@@H](CO)C(=O)N[C@@H](Cc1ccc(O)cc1)C(=O)N[C@@H](CCC(=O)O)C(=O)N[C@@H](Cc1c[nH]c2ccccc12)C(=O)N[C@@H](CC(C)C)C(=O)N[C@@H](Cc1ccccc1)C(N)=O
B3: Dpr-LTCLASYCWLF (peptide)
peptide: [Dap]LTCLASYCWLF
modifications: not fully specified; printed as Dpr-LTCLASYCWLF; cysteine pairing not given here
B4: KLTCLA-Dpr-YCWLF (peptide)
peptide: KLTCLA[Dap]YCWLF
modifications: not fully specified; printed as KLTCLA-Dpr-YCWLF; cysteine pairing not given here
B5: KLTCLASYC-Nal-LF (peptide)
peptide: KLTCLASYC[Nal]LF
modifications: not fully specified; printed as KLTCLASYC-Nal-LF; cysteine pairing not given here

biological target: human Factor IXa (human, UniProt P00740 47-191; P00740 227-461); test: cell-based or functional assay

KLTCLASYCWL[NMeF] (cysteine pairing not given here) [KLTCLASYCWL-MePhe] and KLTCLASYCW cannot be ordered by “EC50 [µM], FXa generation assay” value: > 1 µM for the first, > 10 µM for the second.

Compared with KLTCLASYC, TCLASYCWLF is lower in “EC50 [µM], FXa generation assay” value: > 1 µM for the first, < 0.5 µM for the second.

CLASYCWLF and KLTALASYAWLF cannot be ordered by “EC50 [µM], FXa generation assay” value: > 20 µM for the first, > 5.8 µM for the second.

KLTSLASYSWLF and KLTXLASYCWLF (not fully specified; Pen 4) [KLT-Pen-LASYCWLF] cannot be ordered by “EC50 [µM], FXa generation assay” value: > 15 µM for the first, > 20 µM for the second.

Going from KLTCLASYXWLF (not fully specified; Pen 9) [KLTCLASY-Pen-WLF] to KLTKLASYEWLF [KLT-Lys-LASY-Glu-WLF], the “EC50 [µM], FXa generation assay” value falls from > 20 µM to < 0.5 µM.

KLTELASY[Orn]WLF (not fully specified; printed as KLT-Glu-LASY-Orn-WLF) [KLT-Glu-LASY-Orn-WLF] and B1 cannot be ordered by “EC50 [µM], FXa generation assay” value: < 0.5 µM for the first, < 0.5 µM for the second.

Going from B2 to KLTELASY[Dab]WLF (not fully specified; printed as KLT-Glu-LASY-Dab-WLF) [KLT-Glu-LASY-Dab-WLF], the “EC50 [µM], FXa generation assay” value rises from < 0.5 µM to > 1 µM.

KLTELASY[Dap]WLF (not fully specified; printed as KLT-Glu-LASY-Dap-WLF) [KLT-Glu-LASY-Dap-WLF] and KLT[Dap]LASYEWLF (not fully specified; printed as KLT-Dap-LASY-Glu-WLF) [KLT-Dap-LASY-Glu-WLF] cannot be ordered by “EC50 [µM], FXa generation assay” value: < 0.5 µM for the first, < 0.5 µM for the second.

KKTCLASYCWLF and KLTCKASYCWLF cannot be ordered by “EC50 [µM], FXa generation assay” value: > 50 µM for the first, > 1 µM for the second.

KLTCLKSYCWLF and KLTCLASKCWLF cannot be ordered by “EC50 [µM], FXa generation assay” value: > 1 µM for the first, > 100 µM for the second.

KLTCLASYCWLK and B3 cannot be ordered by “EC50 [µM], FXa generation assay” value: > 100 µM for the first, > 1 µM for the second.

First: QLTCLASYCWLF
Second: XLTCLASYCWLF (not fully specified; Orn 1) [Orn-LTCLASYCWLF]
The “EC50 [µM], FXa generation assay” value of the first is higher: > 20 µM for the first, < 0.5 µM for the second.

KLTCLASYCWLF (Lys(Me)2 1) [Lys(Me)2-LTCLASYCWLF] and KLTCLASYCWLF (Lys(Me3CI) 1) [Lys(Me3CI)-LTCLASYCWLF] cannot be ordered by “EC50 [µM], FXa generation assay” value: > 1 µM for the first, > 1 µM for the second.

KLTCLSSYCWLF and KLTCLXSYCWLF (not fully specified; Dpr 6) [KLTCL-Dpr-SYCWLF] cannot be ordered by “EC50 [µM], FXa generation assay” value: > 1 µM for the first, > 1 µM for the second.

KLTCLXSYCWLF (not fully specified; Abu 6) [KLTCL-Abu-SYCWLF] and KLTCLGSYCWLF cannot be ordered by “EC50 [µM], FXa generation assay” value: > 1 µM for the first, > 1 µM for the second.

KLTCLXSYCWLF (not fully specified; Aib 6) [KLTCL-Aib-SYCWLF] and KLTCLAXYCWLF (not fully specified; HSe 7) [KLTCLA-HSe-YCWLF] cannot be ordered by “EC50 [µM], FXa generation assay” value: > 20 µM for the first, > 1 µM for the second.

B4 and KLTCLATYCWLF cannot be ordered by “EC50 [µM], FXa generation assay” value: > 20 µM for the first, > 1 µM for the second.

B5 and KLTCLASYCWXF (not fully specified; Nle 11) [KLTCLASYCW-Nle-F] cannot be ordered by “EC50 [µM], FXa generation assay” value: < 0.5 µM for the first, < 0.5 µM for the second.

First: KLTCLASYCWYF
Second: KLTCLASYCWLF-OH (disulfide 4-9 (inferred)) [KLTCLASYCWLF-COOH]
The “EC50 [µM], FXa generation assay” value of the first is lower: < 0.5 µM for the first, > 1 µM for the second.

For Ac-KLTCLASYCWLF (not fully specified; cysteine pairing not given here) [Ac-KLTCLASYCWLF], the “EC50 [µM], FXa generation assay” value was > 1 µM.

Source: patent publication US20140303084A1 (Biogen, published 2014)
